Ten sequences from the Immune Epitope Database (IEDB) can be followed below.

A value given as a limit tells only on which side of the number the result lay.

In the first experiment the target is HLA-A*01:01. As to the kind of experiment: IEDB peptide-MHC binding, purified MHC/competitive/radioactivity; filed as Kd, often an IC50 or EC50 that approximates it; ≥ and ≤ were set here for values at or beyond the usual limits of such assays. The settings on record: source organism: Homo sapiens.
Regarding NYPLWSQSY, the Kd (commonly the constant that tells how readily two partners part at equilibrium) is not below 36 µM.

With LYIFATCLGL, the Kd was not below 36 µM.

With LVTCLGLSY, the Kd was 2.98 µM.

In the case of LLGDNQIMPK, the Kd is not below 36 µM.

For the sequence IFATCLGLSY, the Kd is 12.5 µM.

As to KMVELVHFLL, the Kd is not below 36 µM.

With LVFGIELMEV, the Kd was not below 36 µM.

Take KVAELVHFL: the Kd was not below 36 µM.

Consider LGSVVGNWQY, for which the Kd is 12.5 µM.

In the next experiment the target is HLA-A*01:01. As to the kind of experiment: IEDB peptide-MHC binding, purified MHC/competitive/radioactivity; ≥ and ≤ were set here for values at or beyond the usual limits of such assays. The settings on record: source organism: Homo sapiens.
On to FATCLGLSY, for which the IC50 (usually the midpoint of a concentration-inhibition curve) worked out at 0.658 µM.
